Source: publication PMC6002714, “Bovine Herpesvirus 1 UL49.5 Interacts with gM and VP22 To Ensure Virus Cell-to-Cell Spread and Virion Incorporation: Novel Role for VP22 in gM-Independent UL49.5 Virion Incorporation” (Journal of Virology, 2018)

Target: the molecule itself
Assay: non-reducing SDS-PAGE with immunoblot; lysates of virus-infected MDBK cells separated by SDS-PAGE without DTT (compared with +DTT), immunoblotted with anti-UL49.5 or anti-gM; shows only covalently (disulfide) linked complexes

B1: BHV-1 envelope glycoprotein M (gM) (natural protein)
chain: MAGSAQPAAVHWRLWLAQVGVFAALALLLLITLIGAASPGAGLPCFYAAIVNYNARNLSADGGAWAQRELGARHPALFLETPTTAAFSAYTAVVLLAVAAFDVAAAIIIRRENSGGFAAAYHMNALATLATPPGALLLGALAAWTLQAAVLLLSHKIMVLAAATYLAHAGAAAAFVGLFCTAGLPGAEYAQAVHALRERSPRAHRLLGPGRAVMINLAGGLLALIIGTAPLMLGQLLGAGLGLSLAQTVVAGVTVFCLAAVLFLVLTELVLSRYTQVLPGPAFGTLVAASCIAVASHDYFHQLRGVVRTQAPGLPLGVKLALAGVALLAVAMLVLRLVRACLHHRRKGSAFYGHVSAARQQAARYIARARSSRGMAPLEGDAAALLDRGVASDDEEAVYEADARPARQPYR
notes: glycoprotein M of bovine herpesvirus type 1, encoded by the UL10 gene; gM open reading frame nt 84816 to 86051 of GenBank JX898220 (complementary strand; residues up to 411); expressed from the viral genome; 36-kDa immature, EndoH-sensitive gM in infections with the C42S mutants; also called 43-kDa mature gM; 36-kDa immature gM; source: BHV-1 wt or UL49.5 mutant virus-infected MDBK cells, in …
stoichiometry N: 2
